Test results from patent US20030157101A1, “Immunogenic ALK peptides” (priority 2001, published 2003).

Target: T1, HLA-A*0201 molecules on TAP-deficient T2 cells (human)
T1 construct: Peptide-receptive class I molecule on T2 cells; also called HLA-A2.1; HLA-A2
Test: T2 cell HLA-A*0201 stabilisation, 100 uM peptide, flow cytometry with mAb BB7.2; mean of 4 experiments ± SEM
Experimental: T2 cells were incubated with 100 μM of peptide in serum-free RPMI 1640 supplemented with 5 μg/ml of human β₂m (Fluka, Buchs, Germany) for 18 hrs at 37° C.

B1: ALK peptide p621-629 (SLTANMKEV) (peptide)
peptide: SLTANMKEV
notes: C-terminal portion of the protein; also called p621-29
FI (Fluorescence Index): 3.5 ratio (sample / irrelevant-peptide control)
